The results in this text go back to US20080119430A1.

Assay in all cases: cell-based or functional assay
Assay [1] addresses Rac (active Rac-GTP, endogenous in HUVECs) (human) (UniProt P31749).
For assay [2], the target named is Cdc42 (active Cdc42-GTP, endogenous in HUVECs) (human) (UniProt P60953).
Assay [3] deals with Rac (active Rac-GTP, endogenous in NIH3T3 cells).

Chain of Cdc42 (active Cdc42-GTP, endogenous in HUVECs) (human) (P60953 1-188 limits assumed): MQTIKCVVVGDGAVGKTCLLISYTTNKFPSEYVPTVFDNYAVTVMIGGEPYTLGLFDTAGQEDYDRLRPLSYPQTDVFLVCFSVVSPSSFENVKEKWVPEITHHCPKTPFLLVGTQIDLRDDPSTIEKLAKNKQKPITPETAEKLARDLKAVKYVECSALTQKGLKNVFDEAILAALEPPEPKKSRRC
Chain of Rac (active Rac-GTP, endogenous in HUVECs) (human) (P31749 whole entry): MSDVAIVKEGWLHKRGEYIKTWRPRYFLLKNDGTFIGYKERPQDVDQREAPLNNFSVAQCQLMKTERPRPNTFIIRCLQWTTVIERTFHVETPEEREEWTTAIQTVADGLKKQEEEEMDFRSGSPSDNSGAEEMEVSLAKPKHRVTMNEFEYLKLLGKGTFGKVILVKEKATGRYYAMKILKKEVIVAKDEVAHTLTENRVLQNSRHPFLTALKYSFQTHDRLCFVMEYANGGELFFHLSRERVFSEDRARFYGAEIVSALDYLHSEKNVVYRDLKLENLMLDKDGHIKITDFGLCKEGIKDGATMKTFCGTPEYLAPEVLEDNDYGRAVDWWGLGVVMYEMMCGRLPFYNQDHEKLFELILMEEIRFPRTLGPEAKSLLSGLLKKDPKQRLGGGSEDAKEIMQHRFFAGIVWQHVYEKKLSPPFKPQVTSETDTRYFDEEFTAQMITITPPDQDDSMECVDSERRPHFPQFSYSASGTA

Substance “BNO69 (endogenous protein in HUVECs, knocked down by adenoviral antisense BNO69R) (from UniProt Q8N264 131-748) (enzyme)” displayed a fold increase in active Rac in HUVECs after BNO69 knockdown with BNO69R, compared to empty vector in assay [1] of 1.1 fold. In assay [2], this substance yielded a fold increase in active Cdc42 in HUVECs after BNO69 knockdown with BNO69R, compared to empty vector of 1.1 fold.
Turning to “BNO69 (endogenous protein in NIH3T3 cells, knocked down by retroviral antisense BNO69R) (enzyme)”, the increase in Rac activity (Rac-GTP pull-down) in NIH3T3 cells after inhibition of BNO69 expression with antisense BNO69R in assay [3] was found to be 3 fold.
